Measurements published in patent US20190330638A1 (MAYO FOUNDATION FOR MEDICAL EDUCATION AND RESEARCH, published 2019).

Biological target: T1, Ubiquitin-H4 fusion construct (UniProt P0CG48 1-76; P62805 1-103, limits assumed)
T1 construct: Linear fusion used as control bait for pull-down/mass spectrometry; a single ubiquitin unit is meant; also called Ub-H4; Ubquitin-H4
Assay: pull-down with fusion construct, mass spectrometry

binding result: no binding
B1: serine/threonine kinase 38 (STK38) (enzyme)
chain: not shown
notes: Endogenous protein from cell lysates (pull-down/mass spectrometry, immunoprecipitation with STK38 antibody); also called NDR1
